From patent US20110097340A1 (SCHERING, published 2011)

T1: murine VEGF165 (murine, UniProt Q00731-2 27-190)
T1 construct: also called mVEGF165; rMu-VEGF165
T1 sequence (looked up): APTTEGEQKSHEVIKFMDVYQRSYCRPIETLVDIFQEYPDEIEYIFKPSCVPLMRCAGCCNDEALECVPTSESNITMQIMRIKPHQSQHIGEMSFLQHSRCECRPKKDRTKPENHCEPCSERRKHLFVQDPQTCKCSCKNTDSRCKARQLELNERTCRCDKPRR


How the values were obtained:
human VEGF165 [1] = molecular target: T2, human VEGF165 (human, UniProt P15692 207-395); test: Biacore 2000, hVEGF165 amine-coupled on C1 chip, antibody injected, 1:1 fit
T2 construct: Recombinant (R&D Systems 293-VE; sf21- or HEK 293-expressed depending on the assay); Biotinylated in the DELFIA assay; also called hVEGF165; rHu-VEGF165
Method: (§1) The VEGF binding affinity of these IgGs was tested on a Biacore 2000® by injecting the antibodies over a very low density antigen surface. Human or murine VEGF₁₆₅ was immobilized via standard amine coupling methods to flow cells on a C1 (planar carboxy surface) chip. Approximately 85 RU of each antigen was immobilized and a reference flow cell was activated and blocked. Antibodies were injected over the chip surface for 400 seconds at two different concentrations, after which dissociation was monitored. Data was analyzed by Scrubber® using double referencing and fitting with a 1:1 interaction. Regenerations were performed with 90 mM HCl with 500 mM NaCl.
Target sequence in this assay (P15692 other isoform, or with tags, fused parts or gaps limits assumed): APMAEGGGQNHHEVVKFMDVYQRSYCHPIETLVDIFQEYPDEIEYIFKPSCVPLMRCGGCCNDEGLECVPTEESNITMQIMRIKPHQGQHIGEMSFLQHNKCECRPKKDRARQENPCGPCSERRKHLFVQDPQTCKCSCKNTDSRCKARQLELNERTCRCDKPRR

murine VEGF165 = molecular target: T1, murine VEGF165; test: Biacore 2000, mVEGF165 amine-coupled on C1 chip, antibody injected
Method: as §1

human VEGF165 [2] = molecular target: T2, human VEGF165; test: ELISA on hVEGF165; unstressed XPA.10.064.06
human VEGF165 [3] = molecular target: T2, human VEGF165; test: cell-based or functional assay
Target sequence in this assay (P15692 other isoform, or with tags, fused parts or gaps limits assumed): as above

human VEGF165 [4] = molecular target: T2, human VEGF165; test: ELISA on hVEGF165; unstressed XPA.10.064.06; remark: listed apart in the source
human VEGF165 [5] = molecular target: T2, human VEGF165; test: ELISA on hVEGF165; XPA.10.064.06 after chemical stress (tBHP) in the presence of methionine
Method: (§2) For chemical stress, the antibodies were incubated overnight at room temperature with 0.1% tBHP in the presence or absence of 5 mM L-methionine. For thermal stress, the antibodies were incubated in polysorbate for four weeks at 40° C. in the presence or absence of 5 mM L-methionine. The ability of the antibodies to bind hVEGF₁₆₅ was analyzed by Biacore and ELISA.

human VEGF165 [6] = molecular target: T2, human VEGF165; test: ELISA on hVEGF165; XPA.10.064.06 after chemical stress (tBHP) without methionine
Method: as §2

human VEGF165 [7] = molecular target: T2, human VEGF165; test: ELISA on hVEGF165; XPA.10.064.06 after thermal stress without methionine
Method: as §2

human VEGF165 [8] = molecular target: T2, human VEGF165; test: ELISA on hVEGF165; XPA.10.064.06 after thermal stress in the presence of methionine
Method: as §2

Row | Kd (human VEGF165 [1]) | koff (human VEGF165 [1]) | kon (human VEGF165 [1]) | Kd (murine VEGF165) | EC50 (read off the curve) (human VEGF165 [2]) | HUVEC proliferation, geometric mean IC50 (human VEGF165 [3]) | EC50 (read off the curve) (human VEGF165 [4]) | EC50 (read off the curve) (human VEGF165 [5]) | EC50 (read off the curve) (human VEGF165 [6]) | EC50 (read off the curve) (human VEGF165 [7]) | EC50 (read off the curve) (human VEGF165 [8]) | Binder
1 | 55.6 pM | 1.16e-05 s⁻¹ | 216000 M⁻¹ s⁻¹ | – | – | 139 pM | – | – | – | – | – | XPA.10.064.10 IgG2 (antibody, V domains shown, IgG2) VH: EVQLVQSGAEVRKPGASVKVSCKASGYSFTGHYIHWVRQAPGQGLEWMGWINPYSGGTNFPREFQGRVTMTRDTSVNTVYMELTRLTSDDTSVYYCARDEMVWGGLDYWGQGTLVTVSS VL: SYVLTQPPSASGTPGQRVTISCSGSSSNIGINYVYWYQQLPGTAPKLLIYRNDQRPSGVPDRFSGSKSGTSASLAISGLRSEDEADYYCATWDDSLSGVVFGGGTKVTVL
2 | 34.9 pM | 6.65e-06 s⁻¹ | 207000 M⁻¹ s⁻¹ | 130000 pM | – | 129 pM | – | – | – | – | – | XPA.10.064.07 IgG2 (antibody, V domains shown, IgG2) VH: EVQLVQSGAEVRKPGASVKVSCKASGYSFTGHYIHWVRQAPGQGLEWMGWINPYSGGTNFPREFQGRVTMTRDTSVNTVYMELTRLTSDDTSVYYCARDEMHVGGLDYWGQGTLVTVSS VL: SYVLTQPPSASGTPGQRVTISCSGSSSNIGINYVYWYQQLPGTAPKLLIYRNDQRPSGVPDRFSGSKSGTSASLAISGLRSEDEADYYCATWDDSLSGVVFGGGTKVTVL

Continued, binder first:

Row | Binder | Kd (human VEGF165 [1]) | koff (human VEGF165 [1]) | kon (human VEGF165 [1]) | Kd (murine VEGF165) | EC50 (read off the curve) (human VEGF165 [2]) | HUVEC proliferation, geometric mean IC50 (human VEGF165 [3]) | EC50 (read off the curve) (human VEGF165 [4]) | EC50 (read off the curve) (human VEGF165 [5]) | EC50 (read off the curve) (human VEGF165 [6]) | EC50 (read off the curve) (human VEGF165 [7]) | EC50 (read off the curve) (human VEGF165 [8])
3 | XPA.10.064.04 IgG2 (antibody, V domains shown, IgG2) VH: EVQLVQSGAEVRKPGASVKVSCKASGYSFTGHYIHWVRQAPGQGLEWMGWINPYSGGTNFPREFQGRVTMTRDTSVNTVYMELTRLTSDDTSVYYCARDEMQNGGLDYWGQGTLVTVSS VL: SYVLTQPPSASGTPGQRVTISCSGSSSNIGINYVYWYQQLPGTAPKLLIYRNDQRPSGVPDRFSGSKSGTSASLAISGLRSEDEADYYCATWDDSLSGVVFGGGTKVTVL | 197 pM | 2.94e-05 s⁻¹ | 150000 M⁻¹ s⁻¹ | – | – | – | – | – | – | – | –
4 | XPA.10.064.06 IgG2 (antibody, V domains shown, IgG2) VH: EVQLVQSGAEVRKPGASVKVSCKASGYSFTGHYIHWVRQAPGQGLEWMGWINPYSGGTNFPREFQGRVTMTRDTSVNTVYMELTRLTSDDTSVYYCARDEMTRGGLDYWGQGTLVTVSS VL: SYVLTQPPSASGTPGQRVTISCSGSSSNIGINYVYWYQQLPGTAPKLLIYRNDQRPSGVPDRFSGSKSGTSASLAISGLRSEDEADYYCATWDDSLSGVVFGGGTKVTVL | 121 pM | 2.07e-05 s⁻¹ | 178000 M⁻¹ s⁻¹ | 208000 pM | ~6 ng/mL | 173 pM | ~6 ng/mL | – | – | – | –
5 | XPA.10.064.06 after oxidation (chemical stress with tBHP or thermal stress) (antibody, V domains shown, partial methionine oxidation; after tBHP: Met-48 20%, Met-70 0%, Met-81 14%, Met-101 66%; degree after thermal stress not given, also called oxidized XPA.10.064.06) VH: EVQLVQSGAEVRKPGASVKVSCKASGYSFTGHYIHWVRQAPGQGLEWMGWINPYSGGTNFPREFQGRVTMTRDTSVNTVYMELTRLTSDDTSVYYCARDEMTRGGLDYWGQGTLVTVSS VL: SYVLTQPPSASGTPGQRVTISCSGSSSNIGINYVYWYQQLPGTAPKLLIYRNDQRPSGVPDRFSGSKSGTSASLAISGLRSEDEADYYCATWDDSLSGVVFGGGTKVTVL | – | – | – | – | – | – | – | ~20 ng/mL | ~50 ng/mL | ~10 ng/mL | ~6 ng/mL
